Patent US20240117030A1 (Pfizer, published 2024)
Where a chain is given by its changes, count along the chain named.

T1: recombinant human IL-33 (human, UniProt O95760 112-270, limits assumed)
T1 sequence (looked up): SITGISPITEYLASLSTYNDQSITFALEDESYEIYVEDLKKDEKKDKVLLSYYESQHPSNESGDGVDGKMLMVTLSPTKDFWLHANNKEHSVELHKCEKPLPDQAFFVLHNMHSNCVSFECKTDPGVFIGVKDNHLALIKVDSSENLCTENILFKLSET

B1: IL33-158-152 (antibody, human IgG1, kappa, V domains shown)
VH: EVQLVESGGGLVQPGGSLRLSCAASGFTFSSYWMYWVRQAPGKGLEWVAAITPNAGEDYYPESVKGRFTISRDNAKNSLYLQMNSLRAEDTAVYYCARGHYYYTSYSLGYWGQGTLVTVSS
VL: DIQMTQSPSSLSASVGDRVTITCKASQNINKHLDWYQQKPGKAPKLLIYFTNNLQTGVPSRFSGSGSGTDFTLTISSLQPEDFATYYCFQYNQGWTFGGGTKVEIKR
B2: IL33-0726 (antibody, human IgG1, kappa, V domains shown)
VH: B1 VH with H100Q, S105K
VL: B1 VL with K24R, N28P, N30H, K31N, T51G, N52K, T56E, N92K, Q93K, T96S
B3: IL413TSLP-0008 (trispecific antibody, human IgG1, kappa, lambda)
heavy: EVQLVESGGGLVQPGGSLRLSCAASGFTFSSYAMSWVRQAPGKGLEWVASISSGDTTYYPDSVKGRFTISRDNAKNSLYLQMNSLRAEDTAVYYCARNEGYYFGLTLWGQGTLVTVSSASTKGPSVFPKAPSSKSTSGGTAALGCLVKDYFPEPVTVSWNSGALTSGVHTFPAVLQSSGLYSLSSSVTVPSSSLGTQTYICNVNHKPSNTKVDKKVEPKSCDKTHTCPPCPAPEAAGAPSVFLFPPKPKDTLMISRTPEVTCVVVDVSHEDPEVKFNWYVDGVEVHNAKTKPREEQYNSTYRVVSVLTVLHQDWLNGKEYKCKVSNKALPAPIEKTISKAKGQPREPQVCTLPPSREEMTKNQVSLWCLVKGFYPSDIAVEWESNGQPENNYKTTPPVLDSDGSFFLYSKLTVDKSRWQQGNVFSCSVMHEALHNHYTQKSLSLSPGK
chain 1: SYVLTQPPSVSVAPGQTARITCGGNNLGSKSVHWYQQKPGQAPVLVVYDDSDRPSWIPERFSGSNSGNTATLTISRGEAGDEADYYCQVWDSSSDHVVFGGGTKLTVLASTKGPSVFPLAPSSKSTSGGTAALGCLVKDYFPEPVTVSWNSGALTSGVHTFPAVLQSSGLYSLSSVVTVPSSSLGTQTYICNVNHKPSNTKVDKKVEPKSCGGGGSEVTLRESGPALVKPTQTLTLTCTFSGFSLSNFGEGLSWIRQPPGKGLEWLAHIYWDDDKRYNPSLKSRLTISKDTSRNQVVLTMTNMDPVDTATYYCARRETVFYWYFDVWGQGTTVTVSSASTKGPSVFPEAPSSKSTSGGTAALGCLVKDYFPEPVTVSWNSGALTSGVHTFPAVLQSSGLYSLGSVVTVPSSSLGTQTYICNVNHKPSNTKVDKKVEPKSCDKTHTCPPCPAPEAAGAPSVFLFPPKPKDTLMISRTPEVTCVVVDVSHEDPEVKFNWYVDGVEVHNAKTKPREEQYNSTYRVVSVLTVLHQDWLNGKEYKCKVSNKALPAPIEKTISKAKGQPREPQVYTLPPCREEMTKNQVSLSCAVKGFYPSDIAVEWESNGQPENNYKTTPPVLDSDGSFFLVSKLTVDKSRWQQGNVFSCSVMHEALHNHYTQKSLSLSPGK
light 1: DIQMTQSPSSLSASVGDRVTITCKASESVDHFGWSLVHWYQQKPGKAPKLLIYRASNLESGVPSRFSGSGSGTDFTLTISSLQPEDFATYYCQQSNEDPWTFGGGTKVEIKRTVAAPSVFIFPPSDEQLKSGTASVSCLLNNFYPREAKVQWKVDNALQSGNSQESVTEQDSKDSTYSLDSTLTLSKADYEKHKVYACEVTHQGLSSPVTKSFNRGEC
light 2: B3 light 1 with E27Q, H31E, F32D, W34D, L36Y, V37M, H38N, R54A, W100P, D180K
chain 2: QMQLVESGGGVVQPGRSLRLSCAASGFTFRTYGMHWVRQAPGKGLEWVAVIWYDGSNKHYADSVKGRFTITRDNSKNTLNLQMNSLRAEDTAVYYCARAPQWELVHEAFDIWGQGTMVTVSSGQPKAAPSVTLFPPSSEELQANKATLVCLISDFYPGAVTVAWKADSSPVKAGVETTTPSKQSNNKYAASSYLSLTPEQWKSHRSYSCQVTHEGSTVEKTVAPTECS
B4: IL413TSLP-0001 (trispecific antibody, human IgG1, kappa, lambda)
heavy: EVTLRESGPALVKPTQTLTLTCTFSGFSLSNFGEGLSWIRQPPGKGLEWLAHIYWDDDKRYNPSLKSRLTISKDTSRNQVVLTMTNMDPVDTATYYCARRETVFYWYFDVWGQGTTVTVSSASTKGPSVFPEAPSSKSTSGGTAALGCLVKDYFPEPVTVSWNSGALTSGVHTFPAVLQSSGLYSLGSVVTVPSSSLGTQTYICNVNHKPSNTKVDKKVEPKSCDKTHTCPPCPAPEAAGAPSVFLFPPKPKDTLMISRTPEVTCVVVDVSHEDPEVKFNWYVDGVEVHNAKTKPREEQYNSTYRVVSVLTVLHQDWLNGKEYKCKVSNKALPAPIEKTISKAKGQPREPQVYTLPPCREEMTKNQVSLSCAVKGFYPSDIAVEWESNGQPENNYKTTPPVLDSDGSFFLVSKLTVDKSRWQQGNVFSCSVMHEALHNHYTQKSLSLSPGK
chain 1: QMQLVESGGGVVQPGRSLRLSCAASGFTFRTYGMHWVRQAPGKGLEWVAVIWYDGSNKHYADSVKGRFTITRDNSKNTLNLQMNSLRAEDTAVYYCARAPQWELVHEAFDIWGQGTMVTVSSGQPKAAPSVTLFPPSSEELQANKATLVCLISDFYPGAVTVAWKADSSPVKAGVETTTPSKQSNNKYAASSYLSLTPEQWKSHRSYSCQVTHEGSTVEKTVAPTECSGGGGSEVQLVESGGGLVQPGGSLRLSCAASGFTFSSYAMSWVRQAPGKGLEWVASISSGDTTYYPDSVKGRFTISRDNAKNSLYLQMNSLRAEDTAVYYCARNEGYYFGLTLWGQGTLVTVSSASTKGPSVFPKAPSSKSTSGGTAALGCLVKDYFPEPVTVSWNSGALTSGVHTFPAVLQSSGLYSLSSSVTVPSSSLGTQTYICNVNHKPSNTKVDKKVEPKSCDKTHTCPPCPAPEAAGAPSVFLFPPKPKDTLMISRTPEVTCVVVDVSHEDPEVKFNWYVDGVEVHNAKTKPREEQYNSTYRVVSVLTVLHQDWLNGKEYKCKVSNKALPAPIEKTISKAKGQPREPQVCTLPPSREEMTKNQVSLWCLVKGFYPSDIAVEWESNGQPENNYKTTPPVLDSDGSFFLYSKLTVDKSRWQQGNVFSCSVMHEALHNHYTQKSLSLSPGK
light 1: B3 light 1 with E27Q, H31E, F32D, W34D, L36Y, V37M, H38N, R54A, W100P, D180K
light 2: B3 light 1
chain 2: SYVLTQPPSVSVAPGQTARITCGGNNLGSKSVHWYQQKPGQAPVLVVYDDSDRPSWIPERFSGSNSGNTATLTISRGEAGDEADYYCQVWDSSSDHVVFGGGTKLTVLASTKGPSVFPLAPSSKSTSGGTAALGCLVKDYFPEPVTVSWNSGALTSGVHTFPAVLQSSGLYSLSSVVTVPSSSLGTQTYICNVNHKPSNTKVDKKVEPKSC
B5: IL413TSLP-0002 (trispecific antibody, human IgG1, kappa, lambda)
heavy: B3 heavy
chain 1: QMQLVESGGGVVQPGRSLRLSCAASGFTFRTYGMHWVRQAPGKGLEWVAVIWYDGSNKHYADSVKGRFTITRDNSKNTLNLQMNSLRAEDTAVYYCARAPQWELVHEAFDIWGQGTMVTVSSGQPKAAPSVTLFPPSSEELQANKATLVCLISDFYPGAVTVAWKADSSPVKAGVETTTPSKQSNNKYAASSYLSLTPEQWKSHRSYSCQVTHEGSTVEKTVAPTECSGGGGSEVTLRESGPALVKPTQTLTLTCTFSGFSLSNFGEGLSWIRQPPGKGLEWLAHIYWDDDKRYNPSLKSRLTISKDTSRNQVVLTMTNMDPVDTATYYCARRETVFYWYFDVWGQGTTVTVSSASTKGPSVFPEAPSSKSTSGGTAALGCLVKDYFPEPVTVSWNSGALTSGVHTFPAVLQSSGLYSLGSVVTVPSSSLGTQTYICNVNHKPSNTKVDKKVEPKSCDKTHTCPPCPAPEAAGAPSVFLFPPKPKDTLMISRTPEVTCVVVDVSHEDPEVKFNWYVDGVEVHNAKTKPREEQYNSTYRVVSVLTVLHQDWLNGKEYKCKVSNKALPAPIEKTISKAKGQPREPQVYTLPPCREEMTKNQVSLSCAVKGFYPSDIAVEWESNGQPENNYKTTPPVLDSDGSFFLVSKLTVDKSRWQQGNVFSCSVMHEALHNHYTQKSLSLSPGK
light 1: B3 light 1
light 2: B3 light 1 with E27Q, H31E, F32D, W34D, L36Y, V37M, H38N, R54A, W100P, D180K
chain 2: B4 chain 2

What was measured:
recombinant human IL-33 = biological target: T1, recombinant human IL-33; experiment: cell-based or functional assay
human TSLP (long form) = biological target: T2, human TSLP (long form) (human, UniProt Q969D9 29-159, Biotinylated on the Avi tag in some assays; glycosylated (Expi293F expression)); experiment: bridging sandwich ELISA: human TSLP coated, Tri-Fab-Fc titrated, IL-13-FLAG added, detected with HRP anti-FLAG (OD450nm)
T2 construct: biotinylated in some assays; also called lfhTSLP; hTSLP
Experimental: For this method, 25 μL/well of 1 μg/mL recombinant human TSLP (in PBS pH7.2) was coated onto a 384-well clear flat bottom Maxisorp plates (NUNC) overnight at 4° C. and blocked with PBS without Mg²⁺ and Ca²⁺ with 3% BSA. Serially diluted Tri-Fab-Fc variants were added to the plates and incubated for 1 hour at room temperature (RT). After washing away the unbound Tri-Fab-Fc by washing with buffer (PBS without Mg²⁺ and Ca²⁺ with 0.05% tween 20), 25 μL/well of 100 ng/mL IL-13-FLAG (Pfizer Inc) was added to the plates and incubated at RT for one hour. The Tri-Fab-Fc bound to both TSLP and IL-13 was detected by HRP conjugated anti-FLAG secondary antibody (Sigma, Cat #A8592).

Binder | IC50 (mean), HEK-Blue IL-33 SEAP (recombinant human IL-33) [nM] | EC50 (read off the curve) (human TSLP (long form)) [nM]
B1 | 0.0428 | –
B2 | 0.00827 | –
B3 | – | ~0.6
B4 | – | ~0.6
B5 | – | ~0.5
